In the assay the target is T1, 重组PE免疫毒素 (recombinant Pseudomonas exotoxin A, partial sequence) (Pseudomonas aeruginosa (绿脓杆菌), UniProt P11439 173-638).
T1 construct: also called 重组PE抗原; 重组蛋白PE
T1 sequence: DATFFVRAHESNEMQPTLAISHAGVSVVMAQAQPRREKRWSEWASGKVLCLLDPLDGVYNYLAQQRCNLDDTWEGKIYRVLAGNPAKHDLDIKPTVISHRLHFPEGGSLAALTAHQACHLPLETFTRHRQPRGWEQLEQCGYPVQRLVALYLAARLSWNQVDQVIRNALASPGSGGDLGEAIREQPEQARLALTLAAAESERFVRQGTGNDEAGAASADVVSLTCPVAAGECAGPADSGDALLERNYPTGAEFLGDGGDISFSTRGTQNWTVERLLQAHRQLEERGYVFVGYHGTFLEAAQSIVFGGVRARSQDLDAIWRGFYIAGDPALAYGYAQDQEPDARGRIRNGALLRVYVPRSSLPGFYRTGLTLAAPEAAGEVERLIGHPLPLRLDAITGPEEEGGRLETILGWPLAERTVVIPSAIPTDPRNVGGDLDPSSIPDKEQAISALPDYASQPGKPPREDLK
The assay can be described thus: SPR, Biacore T100, 1:1 binding fit. For orientation: Surface plasmon resonance follows binding to a sensor surface in real time, without labels.

B1: 纳米抗体VHH-PE 2 (VHH)
chain: ESGGGLVQAGGSLRLSGVASRRTFCNYLDAMGWLSLVTGKERELVAHITGNRGDVMYLDSVKAGSTISRVKTNSTVYLQMNSMKPEDTHVYYWAPKATGFFSPKEEEKYNWWGQGTQ
For the molecule B1, the Kd (as a rule, the free concentration of one partner at which half of the binding sites on the other are occupied at equilibrium, for simple one-to-one binding) was determined as 4.85 nM.

B2: 纳米抗体VHH-PE 1 (VHH)
VHH: ESGGGLVQAGGSLRLSCAASGRTFSSTGHTFSSYAMGWFRQTPGKEREFVAAISWSGTSTYYADSVKGRFTISRDNAKNTVYLQMNSLKPEDTAVYYCAARFWDYGLGSSDLKSPREYDYWGQGTQ
For the molecule B2, the equilibrium dissociation constant (Kd) stood at 12.2 nM.

For the origin of these results see patent CN107827981A (SHENZHEN GUOCHUANG NANOMETER ANTIBODY TECH CO LTD, dated 2018).
